According to paper PMC6524969, “A nanobody-based molecular toolkit provides new mechanistic insight into clathrin-coat initiation” (eLife, 2019):
Substitutions are numbered along the chain they refer to.

Experiments:
GST-EPS15 (1-314) [1] = molecular target: T1, GST-EPS15 (1-314) (human, UniProt P42566); experiment: pull-down; GST fusion (50 μg, or increasing amounts) immobilised on glutathione-Sepharose; Nb in clarified E. coli periplasmic extract adjusted to 125 mM sodium chloride; 4°C, 60 min; supernatant and pellet on Coomassie-stained gels; conditions: one partner purified
T1 construct: stop codon at 315 (S315*) in pGEX-5X-1; Printed molecular weight 60,924.7; also called GST-EPS15 EH1-3; source: E. coli BL21 codon plus RIL, purified (glutathione-Sepharose); not shown: GST, N-terminal, kept

[2] = molecular target: T2, native Eps15 in rat brain cytosol (Rattus norvegicus (brain cytosol, …, UniProt A0A8I5YC99)); experiment: pull-down; called immunoprecipitation; purified His6-tagged Nb E_142 bound to Ni-NTA-agarose; K-562 cell lysate or rat brain cytosol; immunoblots; conditions: one partner purified
T2 construct: Eps15, endogenous in rat brain cytosol; source: endogenous, rat brain cytosol

[3] = molecular target: T3, EPS15R in K-562 cell lysate (human (endogenous in K-562), UniProt Q9UBC2); experiment: as above; conditions: one partner purified
T3 construct: Epidermal growth factor receptor substrate 15R, endogenous in K-562 cells

GST-EPS15 (1-109) = molecular target: T4, GST-EPS15 (1-109) (Homo sapiens, UniProt P42566); experiment: pull-down; quantitative titration; Nb E_142 fixed at 2 μM, immobilised GST-EPS15 (1-109) 0.5-20 μM or (1-314) 0.25-10 μM; PBS with 100 μg/ml BSA, 4°C, 60 min, 400 μl; Nb band in the supernatant quantified; apparent KD (half-maximal binding); conditions: both partners purified
T4 construct: stop codon L110* in pGEX-5X-1; Printed molecular weight 38,271.3; also called EH1; source: E. coli BL21 codon plus RIL, purified (glutathione-Sepharose); not shown: GST, N-terminal, kept

GST-EPS15 (1-314) [4] = molecular target: T1, GST-EPS15 (1-314); experiment: as above; conditions: both partners purified
GST-EPS15R (1-365) = molecular target: T5, GST-EPS15R (1-365) (Homo sapiens, UniProt Q9UBC2); experiment: pull-down; GST fusion (50 μg, or increasing amounts) immobilised on glutathione-Sepharose; Nb in clarified E. coli periplasmic extract adjusted to 125 mM sodium chloride; 4°C, 60 min; supernatant and pellet on Coomassie-stained gels; conditions: one partner purified
T5 construct: Epidermal growth factor receptor substrate 15R (EPS15R, gene EPS15L1), H. sapiens, residues 1-365 (stop T366*), in pGEX-5X-1; also called EPS15R EH1R-3R; source: E. coli BL21 codon plus RIL, purified (glutathione-Sepharose)

[5] = molecular target: T6, endogenous EPS15 in HeLa cells (Homo sapiens, UniProt P42566); experiment: immunostaining of cells or tissue; relocalisation in cells: Nb E_142 fusion tethered to endosomes (GFP-FYVE2) or mitochondria (Akap1) in transfected HeLa cells; endogenous EPS15 stained with antibodies, confocal microscopy; controls without the Nb module; conditions: partners not purified
T6 construct: Epidermal growth factor receptor substrate 15, endogenous in HeLa cells, stained with anti-EPS15 antibodies; source: endogenous, HeLa SS6 and HeLa clone #40 cells
T6 sequence (P42566 whole entry, the tested form may be a part): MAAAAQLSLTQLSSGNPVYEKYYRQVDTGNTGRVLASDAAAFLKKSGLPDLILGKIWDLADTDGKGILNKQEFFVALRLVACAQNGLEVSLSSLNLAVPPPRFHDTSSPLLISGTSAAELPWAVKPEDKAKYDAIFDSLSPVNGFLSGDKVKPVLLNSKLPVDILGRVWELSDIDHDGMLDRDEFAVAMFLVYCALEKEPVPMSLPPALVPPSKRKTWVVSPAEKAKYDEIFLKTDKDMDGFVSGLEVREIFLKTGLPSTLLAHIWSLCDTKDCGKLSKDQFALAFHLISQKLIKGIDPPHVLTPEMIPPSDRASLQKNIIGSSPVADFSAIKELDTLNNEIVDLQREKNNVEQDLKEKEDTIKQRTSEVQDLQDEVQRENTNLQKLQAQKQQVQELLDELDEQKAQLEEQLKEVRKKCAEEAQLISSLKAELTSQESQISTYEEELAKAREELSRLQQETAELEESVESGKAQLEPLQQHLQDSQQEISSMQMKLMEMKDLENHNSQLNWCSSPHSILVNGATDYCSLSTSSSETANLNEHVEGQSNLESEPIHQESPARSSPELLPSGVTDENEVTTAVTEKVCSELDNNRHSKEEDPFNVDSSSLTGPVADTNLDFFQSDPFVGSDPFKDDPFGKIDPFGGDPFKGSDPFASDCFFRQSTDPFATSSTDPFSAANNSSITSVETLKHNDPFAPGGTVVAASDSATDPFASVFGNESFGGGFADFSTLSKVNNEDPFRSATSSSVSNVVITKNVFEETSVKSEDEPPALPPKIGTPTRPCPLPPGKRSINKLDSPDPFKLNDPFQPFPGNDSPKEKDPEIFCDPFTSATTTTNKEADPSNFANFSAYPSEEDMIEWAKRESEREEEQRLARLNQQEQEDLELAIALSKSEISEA

T1 sequence (P42566 1-314): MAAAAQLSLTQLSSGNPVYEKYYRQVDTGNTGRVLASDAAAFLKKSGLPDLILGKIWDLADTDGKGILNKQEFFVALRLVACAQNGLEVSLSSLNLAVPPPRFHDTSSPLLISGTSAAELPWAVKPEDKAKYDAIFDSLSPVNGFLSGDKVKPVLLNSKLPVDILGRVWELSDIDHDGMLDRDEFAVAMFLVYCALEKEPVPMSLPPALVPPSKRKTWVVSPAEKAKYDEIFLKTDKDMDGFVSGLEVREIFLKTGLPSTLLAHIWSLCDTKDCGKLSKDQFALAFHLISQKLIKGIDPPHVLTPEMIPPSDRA
T5 sequence (Q9UBC2 1-365): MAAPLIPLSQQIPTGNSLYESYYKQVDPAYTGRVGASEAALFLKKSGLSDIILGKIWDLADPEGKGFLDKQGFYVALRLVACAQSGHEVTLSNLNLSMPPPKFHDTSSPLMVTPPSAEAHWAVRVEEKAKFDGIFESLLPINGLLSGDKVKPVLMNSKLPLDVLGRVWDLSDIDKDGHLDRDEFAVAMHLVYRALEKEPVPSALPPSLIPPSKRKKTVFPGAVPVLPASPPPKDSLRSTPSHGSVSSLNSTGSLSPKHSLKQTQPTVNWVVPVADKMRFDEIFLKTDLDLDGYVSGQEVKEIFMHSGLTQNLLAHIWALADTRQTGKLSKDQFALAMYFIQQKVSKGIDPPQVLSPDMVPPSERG
T3 sequence (Q9UBC2 whole entry): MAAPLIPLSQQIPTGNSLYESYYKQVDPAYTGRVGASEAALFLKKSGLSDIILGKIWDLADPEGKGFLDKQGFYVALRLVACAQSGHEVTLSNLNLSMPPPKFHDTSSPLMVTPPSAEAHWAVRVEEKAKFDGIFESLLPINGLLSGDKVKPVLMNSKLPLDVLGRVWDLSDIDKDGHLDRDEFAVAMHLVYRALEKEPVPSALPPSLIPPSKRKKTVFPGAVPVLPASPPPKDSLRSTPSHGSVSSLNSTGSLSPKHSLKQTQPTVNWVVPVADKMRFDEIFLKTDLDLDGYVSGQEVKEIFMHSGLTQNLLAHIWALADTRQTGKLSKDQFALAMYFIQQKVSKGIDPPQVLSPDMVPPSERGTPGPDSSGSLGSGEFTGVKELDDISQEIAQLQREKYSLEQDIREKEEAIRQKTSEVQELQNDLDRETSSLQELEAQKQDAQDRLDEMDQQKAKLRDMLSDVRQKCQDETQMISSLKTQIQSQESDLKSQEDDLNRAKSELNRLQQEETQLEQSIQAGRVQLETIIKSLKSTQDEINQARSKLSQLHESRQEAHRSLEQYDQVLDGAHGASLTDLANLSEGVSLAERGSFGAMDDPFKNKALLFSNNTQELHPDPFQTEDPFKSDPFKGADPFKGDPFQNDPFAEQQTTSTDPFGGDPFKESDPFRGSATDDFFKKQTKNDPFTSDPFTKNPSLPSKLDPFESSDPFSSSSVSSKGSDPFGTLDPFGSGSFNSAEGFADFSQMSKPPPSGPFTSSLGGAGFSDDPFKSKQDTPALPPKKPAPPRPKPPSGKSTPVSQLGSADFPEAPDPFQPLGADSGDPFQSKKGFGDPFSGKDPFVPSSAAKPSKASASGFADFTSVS
T4 sequence (P42566 1-109): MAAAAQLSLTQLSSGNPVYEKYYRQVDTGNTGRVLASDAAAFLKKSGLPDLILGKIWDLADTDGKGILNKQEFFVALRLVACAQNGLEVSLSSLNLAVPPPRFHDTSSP

B1: Nb E_3 (VHH)
VHH: QVQLQESGGGLVQAGGSLRLSCAASGSIFSINAMGWYRQAPGKQRELVAAITSGGTTNYADSVKGRFTISRDNAKNTLYLQMNSLKPEDTAVYYCNLGGLRNPFGSWGQGTQVTVSS
notes: NPF tripeptide in CDR3, placed differently from that of Nb E_142; also called Nb E_3-His6; source: E. coli XL1-Blue (pHEN6c), periplasmic extract
- binding result (GST-EPS15 (1-314) [1]): binds

B2: Nb E_142 (VHH)
VHH: QVQLQESGGGLVQAGGSLRLSCAASGFISSSSTMGWYRPAPGKQRELVASISSGGTTNYAESVKGRFTISRDNAKNTVYLQMDSLKPEDTAVYYCNMKSMNPFRRYDVWGQGTQVTVSS
notes: NPF(R) tripeptide in CDR3; Printed molecular weight of Nb E_142-His6: 13,683.2; also called Nb E_142-His6; His6-tagged Nb E_142; source: E. coli XL1-Blue (pHEN6c), periplasmic extract; also purified from the periplasmic extract (Ni-NTA-agarose, Sephacryl S-100); not shown: His6, C-terminal, kept
- binding result [2]: binds
- binding result [3]: binds
- Kd (GST-EPS15 (1-109)): ~3000 nM
- Kd (GST-EPS15 (1-314) [4]): ~2000 nM
- binding result (GST-EPS15R (1-365)): binds

B3: GFP-FYVE2-desNb E_142 (VHH)
VHH: B2 VHH with S70R, C95Y, S119F
notes: Four glycine residues between the second FYVE domain and the Nb; also called GFP-FYVE2-dNb E_142; 3maj conditionally destabilized Nb E_142; source: HeLa SS6, transiently transfected, in cells; not shown: GFP, N-terminal, kept; tandem FYVE domain (FYVE2), N-terminal, kept
- binding result [5]: binds

B4: Nb E_180 (VHH)
VHH: QVQLQESGGGSVQAGGSLRLSCAASGSIFSVNLMGWYREAPGKATEFVATVTAGGYTNVADSLKDRFTISMDNAKNTVYLQMNNLKPEDTAVYYCNMKSMNPFRRYDVWGQGTQVTVSS
notes: CDR3 identical to that of Nb E_142, 18 amino acid differences from Nb E_142; also called Nb E_180-His6; source: E. coli XL1-Blue (pHEN6c), periplasmic extract
- binding result (GST-EPS15 (1-314) [1]): binds
